US20060115475A1 (published 2006)

How the values were obtained:
[1] = biological target: T1, soluble human TLR3 extracellular domain (human, UniProt O15455 24-703); assay: Biacore 2000, mAb captured on protein A, TLR3 in solution, 25 C, 1:1 model
T1 construct: also called hTLR3 extracellular domain; extracellular domain of human TLR3
Protocol: Measurement of binding affinity by Biacore was performed by mAb capture and TLR3 capture techniques. MAb capture analysis was performed at 25° C. using a Biacore 2000 biosensor equipped with a CM5 chip with surfaces modified with protein A (6,000 RU) at 25° C. by standard amine coupling. Antibody was diluted to 30 nM and captured for one minute on different protein A surfaces. TLR3 was injected at 0, 0.1, 0.3, 1.0, 3.0, and 9.0 nM and associations and dissociations were monitored for 5 minutes. The protein A modified surfaces were regenerated using two 6-second pulses 100 mM phosphoric acid. Available binding data sets were fit to a 1:1 interaction model (CLAMP™). The rate constants and their ratio (KD=kd/kₐ) and the error of fit carried over the estimate of the apparent equilibrium constants were calculated.

[2] = biological target: T1, soluble human TLR3 extracellular domain; assay: ELISA, coated soluble hTLR3 extracellular domain, HRP-labeled anti-human IgG
[3] = biological target: T2, Human hexa-histidine-TLR3 (human, UniProt O15455 24-703, limits assumed); assay: Biacore 3000, hexa-histidine-TLR3 captured on anti-His antibody, mAb in solution, 25 C, 1:1 model
T2 construct: Captured by anti-His antibody on a CM5 chip; also called TLR3 (captured on the chip surface); not shown: hexa-histidine tag

[4] = biological target: T1, soluble human TLR3 extracellular domain; assay: ELISA, TLR3 binding assay as in Example 20

| EC50 [2] [µg/mL] | EC50 [4] [µg/mL] | Binder | further results |
| --- | --- | --- | --- |
| 0.0137 |  | human-adapted anti-TLR3 mAb HV5/LV5 (antibody, human IgG4, V domains shown, Human IgG4 (S228P, F234A, L235A), kappa; not shown: human kappa light chain constant region) VH: QVQLVQSGAEVKKPGASVKVSCKASGYTFTTYWIHWVRQATGQGLEWMGEINPNNGRINYNEKFKTRVTMTRNTSISTAYMELSSLRSEDTAVYYCARVGVMITTFPYWGQGTLVTVSS VL: DIQMTQSPSSLSASVGDRVTITCRASGNIHNYLAWYQQKPGKVPKLLIYNAKTLADGVPSRFSGSGSGTDFTLTISSLQPEDVATYYCQHFWSTPFTFGGGTKVEIK | Kd [1]: 1.1 nM; Kd [3]: 0.7 nM |
| 4.26 |  | human-adapted anti-TLR3 mAb HV7/LV7 (antibody, human IgG4, V domains shown, Human IgG4 (S228P, F234A, L235A), kappa; not shown: human kappa light chain constant region) VH: QVQLVQSGAEVKKPGSSVKVSCKASGGTFSTYWIHWVRQAPGQGLEWMGEINPNNGRINYNEKFKTRVTITADESTSTAYMELSSLRSEDTAVYYCARVGVMITTFPYWGRGTLVTVSS VL: DIQMTQSPSSLSASVGDRVTITCRASGNIHNYLAWFQQKPGKAPKSLIYNAKTLADGVPSRFSGSGSGTDFTLTISSLQPEDFATYYCQHFWSTPFTFGQGTKLEIK |  |
| 1.82 |  | human-adapted anti-TLR3 mAb HV7/LV5 (antibody, human IgG4, V domains shown, Human IgG4 (S228P, F234A, L235A), kappa; not shown: human kappa light chain constant region) VH: QVQLVQSGAEVKKPGSSVKVSCKASGGTFSTYWIHWVRQAPGQGLEWMGEINPNNGRINYNEKFKTRVTITADESTSTAYMELSSLRSEDTAVYYCARVGVMITTFPYWGRGTLVTVSS VL: DIQMTQSPSSLSASVGDRVTITCRASGNIHNYLAWYQQKPGKVPKLLIYNAKTLADGVPSRFSGSGSGTDFTLTISSLQPEDVATYYCQHFWSTPFTFGGGTKVEIK |  |
| 0.0291 |  | human-adapted anti-TLR3 mAb HV4/LV1 (antibody, human IgG4, V domains shown, Human IgG4 (S228P, F234A, L235A), kappa; not shown: human kappa light chain constant region) VH: QVQLVQSGAEVKKPGASVKVSCKASGYTFTTYWIHWVRQAPGQGLEWMGEINPNNGRINYNEKFKTRVTMTRDTSISTAYMELSRLRSDDTAVYYCARVGVMITTFPYWGQGTLVTVSS VL: DIQMTQSPSSLSASVGDRVTITCRASGNIHNYLAWYQQKPGKAPKLLIYNAKTLADGVPSRFSGSGSGTDFTLTISSLQPEDFATYYCQHFWSTPFTFGQGTKLEIK |  |
| 0.0786 |  | human-adapted anti-TLR3 mAb HV5/LV7 (antibody, human IgG4, V domains shown, Human IgG4 (S228P, F234A, L235A), kappa; not shown: human kappa light chain constant region) VH: QVQLVQSGAEVKKPGASVKVSCKASGYTFTTYWIHWVRQATGQGLEWMGEINPNNGRINYNEKFKTRVTMTRNTSISTAYMELSSLRSEDTAVYYCARVGVMITTFPYWGQGTLVTVSS VL: DIQMTQSPSSLSASVGDRVTITCRASGNIHNYLAWFQQKPGKAPKSLIYNAKTLADGVPSRFSGSGSGTDFTLTISSLQPEDFATYYCQHFWSTPFTFGQGTKLEIK |  |

Second part, the binder before the results:

| Binder | EC50 [2] [µg/mL] | EC50 [4] [µg/mL] | further results |
| --- | --- | --- | --- |
| human-adapted C1068 variant mAb HBV2 (Vh CDR2 Y60G in the HV1/LV1 background) (antibody, V domains shown, Made in the HV1/LV1 background; not shown: human kappa light chain constant region) VH: QVQLVQSGAEVKKPGASVKVSCKASGYTFTTYWIHWVRQAPGQRLEWMGEINPNNGRINGNEKFKTRVTITRDTSASTAYMELSSLRSEDTAVYYCARVGVMITTFPYWGQGTLVTVSS VL: DIQMTQSPSSLSASVGDRVTITCRASGNIHNYLAWYQQKPGKAPKLLIYNAKTLADGVPSRFSGSGSGTDFTLTISSLQPEDFATYYCQHFWSTPFTFGQGTKLEIK |  | 0.0146 |  |
| human-adapted anti-TLR3 mAb HV1/LV3 (antibody, human IgG4, V domains shown, Human IgG4 (S228P, F234A, L235A), kappa; not shown: human kappa light chain constant region) VH: QVQLVQSGAEVKKPGASVKVSCKASGYTFTTYWIHWVRQAPGQRLEWMGEINPNNGRINYNEKFKTRVTITRDTSASTAYMELSSLRSEDTAVYYCARVGVMITTFPYWGQGTLVTVSS VL: DIQMTQSPSSLSASVGDRVTITCRASGNIHNYLAWYQQKPGKAPKRLIYNAKTLADGVPSRFSGSGSGTEFTLTISSLQPEDFATYYCQHFWSTPFTFGQGTKLEIK | 0.118 |  |  |
| human-adapted C1068 variant mAb HBV3 (Vh CDR2 N61A in the HV1/LV1 background) (antibody, V domains shown, Made in the HV1/LV1 background; not shown: human kappa light chain constant region) VH: QVQLVQSGAEVKKPGASVKVSCKASGYTFTTYWIHWVRQAPGQRLEWMGEINPNNGRINYAEKFKTRVTITRDTSASTAYMELSSLRSEDTAVYYCARVGVMITTFPYWGQGTLVTVSS VL: DIQMTQSPSSLSASVGDRVTITCRASGNIHNYLAWYQQKPGKAPKLLIYNAKTLADGVPSRFSGSGSGTDFTLTISSLQPEDFATYYCQHFWSTPFTFGQGTKLEIK |  | 0.048 |  |
| human-adapted anti-TLR3 mAb HV1/LV5 (antibody, human IgG4, V domains shown, Human IgG4 (S228P, F234A, L235A), kappa; not shown: human kappa light chain constant region) VH: QVQLVQSGAEVKKPGASVKVSCKASGYTFTTYWIHWVRQAPGQRLEWMGEINPNNGRINYNEKFKTRVTITRDTSASTAYMELSSLRSEDTAVYYCARVGVMITTFPYWGQGTLVTVSS VL: DIQMTQSPSSLSASVGDRVTITCRASGNIHNYLAWYQQKPGKVPKLLIYNAKTLADGVPSRFSGSGSGTDFTLTISSLQPEDVATYYCQHFWSTPFTFGGGTKVEIK | 0.0277 |  |  |
| human-adapted C1068 variant mAb HBV4 (Vh CDR2 F64G in the HV1/LV1 background) (antibody, V domains shown, Made in the HV1/LV1 background; not shown: human kappa light chain constant region) VH: QVQLVQSGAEVKKPGASVKVSCKASGYTFTTYWIHWVRQAPGQRLEWMGEINPNNGRINYNEKGKTRVTITRDTSASTAYMELSSLRSEDTAVYYCARVGVMITTFPYWGQGTLVTVSS VL: DIQMTQSPSSLSASVGDRVTITCRASGNIHNYLAWYQQKPGKAPKLLIYNAKTLADGVPSRFSGSGSGTDFTLTISSLQPEDFATYYCQHFWSTPFTFGQGTKLEIK |  | 0.0409 |  |
